Laboratory results as given in article PMC9482650, “Quantitative fragmentomics allow affinity mapping of interactomes” (Nature Communications, 2022).

T1: DLG3_1, Q92796
T1 sequence (Q92796 125-227, limits assumed, looked up): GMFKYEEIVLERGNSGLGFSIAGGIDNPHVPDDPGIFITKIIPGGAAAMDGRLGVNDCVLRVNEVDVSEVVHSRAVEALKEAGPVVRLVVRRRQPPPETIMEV

T2: DVL3, Q92997
T2 sequence (Q92997 244-331, limits assumed, looked up): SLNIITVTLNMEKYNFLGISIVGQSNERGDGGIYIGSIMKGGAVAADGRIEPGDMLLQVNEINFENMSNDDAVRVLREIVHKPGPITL

T3: APBA2_1, Q99767
T3 sequence (Q99767 563-664, limits assumed, looked up): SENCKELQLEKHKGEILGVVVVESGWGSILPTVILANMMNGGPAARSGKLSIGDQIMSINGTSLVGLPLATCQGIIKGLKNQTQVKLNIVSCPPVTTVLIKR

T4: SYNJ2BP, P57105
T4 sequence (P57105 8-110, limits assumed, looked up): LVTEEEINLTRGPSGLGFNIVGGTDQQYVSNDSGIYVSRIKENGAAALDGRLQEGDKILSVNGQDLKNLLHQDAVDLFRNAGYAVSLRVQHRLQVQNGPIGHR

T5: SNTB1, Q13884
T5 sequence (Q13884 107-205, limits assumed, looked up): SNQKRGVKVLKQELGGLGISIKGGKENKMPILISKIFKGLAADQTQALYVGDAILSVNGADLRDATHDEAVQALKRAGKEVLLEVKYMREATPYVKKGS

T6: FRMPD1, Q5SYB0
T6 sequence (Q5SYB0 52-145, limits assumed, looked up): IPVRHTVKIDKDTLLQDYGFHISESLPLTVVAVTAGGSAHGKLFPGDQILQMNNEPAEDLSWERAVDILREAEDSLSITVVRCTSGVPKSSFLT

T7: PDZD7_3, Q9H5P4
T7 sequence (Q9H5P4 857-944, limits assumed, looked up): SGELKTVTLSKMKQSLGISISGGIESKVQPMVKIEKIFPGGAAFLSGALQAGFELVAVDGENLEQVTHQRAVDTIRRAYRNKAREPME

T8: GRIP1_5, Q9Y3R0
T8 sequence (Q9Y3R0 568-668, limits assumed, looked up): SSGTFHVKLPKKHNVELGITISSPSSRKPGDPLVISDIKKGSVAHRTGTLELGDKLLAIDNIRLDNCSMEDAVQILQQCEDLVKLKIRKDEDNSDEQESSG

T9: DLG3_2, Q92796
T9 sequence (Q92796 221-321, limits assumed, looked up): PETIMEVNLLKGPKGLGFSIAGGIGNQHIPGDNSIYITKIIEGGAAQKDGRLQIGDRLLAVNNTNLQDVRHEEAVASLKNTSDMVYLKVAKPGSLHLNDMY

T10: APBA3_1, O96018
T10 sequence (O96018 389-490, limits assumed, looked up): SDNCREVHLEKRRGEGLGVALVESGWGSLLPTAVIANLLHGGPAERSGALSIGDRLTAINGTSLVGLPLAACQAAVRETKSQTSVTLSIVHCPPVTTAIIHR

T11: SHANK1, Q9Y566
T11 sequence (Q9Y566 658-767, limits assumed, looked up): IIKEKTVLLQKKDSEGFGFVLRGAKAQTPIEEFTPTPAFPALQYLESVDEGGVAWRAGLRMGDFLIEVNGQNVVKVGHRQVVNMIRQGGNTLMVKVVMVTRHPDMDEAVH

T12: ARHGAP21, Q5T5U3
T12 sequence (Q5T5U3 45-169, limits assumed, looked up): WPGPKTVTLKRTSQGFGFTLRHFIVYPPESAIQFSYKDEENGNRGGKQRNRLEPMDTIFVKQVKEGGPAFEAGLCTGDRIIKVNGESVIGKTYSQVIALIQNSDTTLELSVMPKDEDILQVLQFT

T13: TJP3_3, O95049
T13 sequence (O95049 375-456, limits assumed, looked up): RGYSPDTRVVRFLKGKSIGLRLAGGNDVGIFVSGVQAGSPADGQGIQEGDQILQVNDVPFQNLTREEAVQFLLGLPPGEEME


biological target: T1, DLG3_1, Q92796; test: holdup assay; design: key: below the threshold = too weak to quantify, mostly under pKd 3.1 to 4; details: plain residues with an end cap or a label only (N-terminal biotin on a linker: ado-ado)

Row | Binder | pKd
1 | KAEEKPPSKV [SCN4B, Q8IWT1] | below the threshold
2 | LPPPESESKV [KCNJ9, Q92806] | below the threshold

biological target: HTRA1, Q92743; test: holdup assay; design: key: below the threshold = too weak to quantify, mostly under pKd 3.1 to 4; details: plain residues with an end cap or a label only (N-terminal biotin on a linker: ado-ado)
Sequence (Q92743 360-477): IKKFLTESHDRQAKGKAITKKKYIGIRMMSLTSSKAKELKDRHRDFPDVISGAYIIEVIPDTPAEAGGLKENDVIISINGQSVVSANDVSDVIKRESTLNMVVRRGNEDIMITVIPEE

Row | Binder | pKd
3 | KAEEKPPSKV [SCN4B, Q8IWT1] | below the threshold
4 | LPPPESESKV [KCNJ9, Q92806] | below the threshold

biological target: MAST1, Q9Y2H9; test: holdup assay; design: key: below the threshold = too weak to quantify, mostly under pKd 3.1 to 4; details: plain residues with an end cap or a label only (N-terminal biotin on a linker: ado-ado)
Sequence (Q9Y2H9 962-1065): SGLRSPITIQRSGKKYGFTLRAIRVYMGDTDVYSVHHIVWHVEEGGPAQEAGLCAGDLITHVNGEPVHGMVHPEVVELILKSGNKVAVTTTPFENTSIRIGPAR

Row | Binder | pKd
5 | KAEEKPPSKV [SCN4B, Q8IWT1] | 3.69
6 | LPPPESESKV [KCNJ9, Q92806] | 4.29

biological target: T2, DVL3, Q92997; test: holdup assay; design: key: below the threshold = too weak to quantify, mostly under pKd 3.1 to 4; details: plain residues with an end cap or a label only (N-terminal biotin on a linker: ado-ado)

Row | Binder | pKd
7 | KAEEKPPSKV [SCN4B, Q8IWT1] | below the threshold
8 | LPPPESESKV [KCNJ9, Q92806] | below the threshold

biological target: PDLIM1, O00151; test: holdup assay; design: key: below the threshold = too weak to quantify, mostly under pKd 3.1 to 4; details: plain residues with an end cap or a label only (N-terminal biotin on a linker: ado-ado)
Sequence (O00151 1-87): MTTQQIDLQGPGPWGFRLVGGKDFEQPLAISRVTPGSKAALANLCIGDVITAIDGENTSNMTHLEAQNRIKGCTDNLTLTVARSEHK

Row | Binder | pKd
9 | KAEEKPPSKV [SCN4B, Q8IWT1] | below the threshold
10 | LPPPESESKV [KCNJ9, Q92806] | below the threshold

biological target: T3, APBA2_1, Q99767; test: holdup assay; design: key: below the threshold = too weak to quantify, mostly under pKd 3.1 to 4; details: plain residues with an end cap or a label only (N-terminal biotin on a linker: ado-ado)

Row | Binder | pKd
11 | KAEEKPPSKV [SCN4B, Q8IWT1] | below the threshold
12 | LPPPESESKV [KCNJ9, Q92806] | below the threshold

biological target: DLG1_2, Q12959; test: holdup assay; design: key: below the threshold = too weak to quantify, mostly under pKd 3.1 to 4; details: plain residues with an end cap or a label only (N-terminal biotin on a linker: ado-ado)
Sequence (Q12959 314-412): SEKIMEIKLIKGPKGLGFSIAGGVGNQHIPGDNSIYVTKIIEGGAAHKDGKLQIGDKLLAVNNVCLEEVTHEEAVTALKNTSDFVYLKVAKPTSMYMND

Row | Binder | pKd
13 | KAEEKPPSKV [SCN4B, Q8IWT1] | 3.52
14 | LPPPESESKV [KCNJ9, Q92806] | 3.54

biological target: T4, SYNJ2BP, P57105; test: holdup assay; design: key: below the threshold = too weak to quantify, mostly under pKd 3.1 to 4; details: plain residues with an end cap or a label only (N-terminal biotin on a linker: ado-ado)

Row | Binder | pKd
15 | KAEEKPPSKV [SCN4B, Q8IWT1] | below the threshold
16 | LPPPESESKV [KCNJ9, Q92806] | 4.02

biological target: MAGI2_6, Q86UL8; test: holdup assay; design: key: below the threshold = too weak to quantify, mostly under pKd 3.1 to 4; details: plain residues with an end cap or a label only (N-terminal biotin on a linker: ado-ado)
Sequence (Q86UL8 1141-1229): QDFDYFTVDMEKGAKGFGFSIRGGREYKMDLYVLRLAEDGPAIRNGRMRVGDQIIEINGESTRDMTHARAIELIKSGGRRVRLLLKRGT

Row | Binder | pKd
17 | KAEEKPPSKV [SCN4B, Q8IWT1] | below the threshold
18 | LPPPESESKV [KCNJ9, Q92806] | 3.48

biological target: T5, SNTB1, Q13884; test: holdup assay; design: key: below the threshold = too weak to quantify, mostly under pKd 3.1 to 4; details: plain residues with an end cap or a label only (N-terminal biotin on a linker: ado-ado)

Row | Binder | pKd
19 | KAEEKPPSKV [SCN4B, Q8IWT1] | below the threshold
20 | LPPPESESKV [KCNJ9, Q92806] | 4.32

biological target: T6, FRMPD1, Q5SYB0; test: holdup assay; design: key: below the threshold = too weak to quantify, mostly under pKd 3.1 to 4; details: plain residues with an end cap or a label only (N-terminal biotin on a linker: ado-ado)

Row | Binder | pKd
21 | KAEEKPPSKV [SCN4B, Q8IWT1] | below the threshold
22 | LPPPESESKV [KCNJ9, Q92806] | below the threshold

biological target: Inadl_6, Q8NI35; test: holdup assay; design: key: below the threshold = too weak to quantify, mostly under pKd 3.1 to 4; details: plain residues with an end cap or a label only (N-terminal biotin on a linker: ado-ado)
Sequence (Q8NI35 1058-1167): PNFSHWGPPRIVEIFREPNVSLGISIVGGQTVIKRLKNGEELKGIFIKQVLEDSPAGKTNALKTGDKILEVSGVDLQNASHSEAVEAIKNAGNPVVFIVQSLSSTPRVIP

Row | Binder | pKd
23 | KAEEKPPSKV [SCN4B, Q8IWT1] | below the threshold
24 | LPPPESESKV [KCNJ9, Q92806] | below the threshold

biological target: T7, PDZD7_3, Q9H5P4; test: holdup assay; design: key: below the threshold = too weak to quantify, mostly under pKd 3.1 to 4; details: plain residues with an end cap or a label only (N-terminal biotin on a linker: ado-ado)

Row | Binder | pKd
25 | KAEEKPPSKV [SCN4B, Q8IWT1] | below the threshold
26 | LPPPESESKV [KCNJ9, Q92806] | below the threshold

biological target: T8, GRIP1_5, Q9Y3R0; test: holdup assay; design: key: below the threshold = too weak to quantify, mostly under pKd 3.1 to 4; details: plain residues with an end cap or a label only (N-terminal biotin on a linker: ado-ado)

Row | Binder | pKd
27 | KAEEKPPSKV [SCN4B, Q8IWT1] | below the threshold
28 | LPPPESESKV [KCNJ9, Q92806] | below the threshold

biological target: T9, DLG3_2, Q92796; test: holdup assay; design: key: below the threshold = too weak to quantify, mostly under pKd 3.1 to 4; details: plain residues with an end cap or a label only (N-terminal biotin on a linker: ado-ado)

Row | Binder | pKd
29 | KAEEKPPSKV [SCN4B, Q8IWT1] | below the threshold
30 | LPPPESESKV [KCNJ9, Q92806] | 4.23

biological target: Inadl_4, Q8NI35; test: holdup assay; design: key: below the threshold = too weak to quantify, mostly under pKd 3.1 to 4; details: plain residues with an end cap or a label only (N-terminal biotin on a linker: ado-ado)
Sequence (Q8NI35 547-651): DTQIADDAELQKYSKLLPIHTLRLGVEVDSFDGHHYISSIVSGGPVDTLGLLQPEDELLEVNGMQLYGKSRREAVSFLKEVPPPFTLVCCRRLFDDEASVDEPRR

Row | Binder | pKd
31 | KAEEKPPSKV [SCN4B, Q8IWT1] | below the threshold
32 | LPPPESESKV [KCNJ9, Q92806] | below the threshold

biological target: GRIP2_4, Q9C0E4; test: holdup assay; design: key: below the threshold = too weak to quantify, mostly under pKd 3.1 to 4; details: plain residues with an end cap or a label only (N-terminal biotin on a linker: ado-ado)
Sequence (Q9C0E4 446-548): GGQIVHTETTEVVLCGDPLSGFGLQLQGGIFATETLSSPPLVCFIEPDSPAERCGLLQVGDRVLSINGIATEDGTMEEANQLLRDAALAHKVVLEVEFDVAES

Row | Binder | pKd
33 | KAEEKPPSKV [SCN4B, Q8IWT1] | below the threshold
34 | LPPPESESKV [KCNJ9, Q92806] | below the threshold

biological target: T10, APBA3_1, O96018; test: holdup assay; design: key: below the threshold = too weak to quantify, mostly under pKd 3.1 to 4; details: plain residues with an end cap or a label only (N-terminal biotin on a linker: ado-ado)

Row | Binder | pKd
35 | KAEEKPPSKV [SCN4B, Q8IWT1] | below the threshold
36 | LPPPESESKV [KCNJ9, Q92806] | below the threshold

biological target: GRID2IP_2, A4D2P6; test: holdup assay; design: key: below the threshold = too weak to quantify, mostly under pKd 3.1 to 4; details: plain residues with an end cap or a label only (N-terminal biotin on a linker: ado-ado)
Sequence (A4D2P6 272-370): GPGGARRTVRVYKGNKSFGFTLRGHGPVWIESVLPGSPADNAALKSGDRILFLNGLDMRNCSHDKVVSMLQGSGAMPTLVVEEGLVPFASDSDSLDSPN

Row | Binder | pKd
37 | KAEEKPPSKV [SCN4B, Q8IWT1] | below the threshold
38 | LPPPESESKV [KCNJ9, Q92806] | below the threshold

biological target: T11, SHANK1, Q9Y566; test: holdup assay; design: key: below the threshold = too weak to quantify, mostly under pKd 3.1 to 4; details: plain residues with an end cap or a label only (N-terminal biotin on a linker: ado-ado)

Row | Binder | pKd
39 | KAEEKPPSKV [SCN4B, Q8IWT1] | below the threshold
40 | LPPPESESKV [KCNJ9, Q92806] | below the threshold

biological target: T12, ARHGAP21, Q5T5U3; test: holdup assay; design: key: below the threshold = too weak to quantify, mostly under pKd 3.1 to 4; details: plain residues with an end cap or a label only (N-terminal biotin on a linker: ado-ado)

Row | Binder | pKd
41 | KAEEKPPSKV [SCN4B, Q8IWT1] | below the threshold
42 | LPPPESESKV [KCNJ9, Q92806] | below the threshold

biological target: T13, TJP3_3, O95049; test: holdup assay; design: key: below the threshold = too weak to quantify, mostly under pKd 3.1 to 4; details: plain residues with an end cap or a label only (N-terminal biotin on a linker: ado-ado)

Row | Binder | pKd
43 | KAEEKPPSKV [SCN4B, Q8IWT1] | below the threshold
44 | LPPPESESKV [KCNJ9, Q92806] | below the threshold

biological target: SCRIB_2, Q14160; test: holdup assay; design: key: below the threshold = too weak to quantify, mostly under pKd 3.1 to 4; details: plain residues with an end cap or a label only (N-terminal biotin on a linker: ado-ado)
Sequence (Q14160 857-960): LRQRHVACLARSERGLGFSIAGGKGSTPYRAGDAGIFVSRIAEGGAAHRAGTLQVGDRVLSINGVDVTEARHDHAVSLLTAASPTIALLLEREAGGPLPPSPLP

Row | Binder | pKd
45 | KAEEKPPSKV [SCN4B, Q8IWT1] | below the threshold
46 | LPPPESESKV [KCNJ9, Q92806] | below the threshold

biological target: MAGI2_5, Q86UL8; test: holdup assay; design: key: below the threshold = too weak to quantify, mostly under pKd 3.1 to 4; details: plain residues with an end cap or a label only (N-terminal biotin on a linker: ado-ado)
Sequence (Q86UL8 915-1017): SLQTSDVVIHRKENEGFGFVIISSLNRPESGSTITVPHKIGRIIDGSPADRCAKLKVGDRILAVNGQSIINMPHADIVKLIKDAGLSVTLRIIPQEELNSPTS

Row | Binder | pKd
47 | KAEEKPPSKV [SCN4B, Q8IWT1] | 3.51
48 | LPPPESESKV [KCNJ9, Q92806] | below the threshold
